Assays:
[1] = biological target: HLA-A*02:01; test: IEDB peptide-MHC binding, cellular MHC/competitive/fluorescence; ≥ and ≤ were set here for values at or beyond the usual limits of such assays
[2] = biological target: HLA-C*14:02; test: IEDB peptide-MHC binding, purified MHC/direct/fluorescence; filed as Kd, often an IC50 or EC50 that approximates it; ≥ and ≤ were set here for values at or beyond the usual limits of such assays
[3] = biological target: HLA-A*02:01; test: as above
[4] = biological target: HLA-A*02:03; test: as above; settings: source organism: Listeria monocytogenes serotype 4b str. H7858
[5] = biological target: HLA-A*02:11; test: as above; settings: source organism: Listeria monocytogenes serotype 4b str. H7858
[6] = biological target: HLA-A*02:12; test: as above; settings: source organism: Listeria monocytogenes serotype 4b str. H7858
[7] = biological target: HLA-A*02:16; test: as above; settings: source organism: Listeria monocytogenes serotype 4b str. H7858
[8] = biological target: HLA-A*02:19; test: as above; settings: source organism: Listeria monocytogenes serotype 4b str. H7858
[9] = biological target: HLA-A*03:01; test: as above
[10] = biological target: HLA-A*24:03; test: as above; settings: source organism: Listeria monocytogenes serotype 4b str. H7858
[11] = biological target: HLA-A*26:01; test: as above
[12] = biological target: HLA-A*29:02; test: as above; settings: source organism: Listeria monocytogenes serotype 4b str. H7858
[13] = biological target: HLA-A*68:02; test: as above; settings: source organism: Listeria monocytogenes serotype 4b str. H7858
[14] = biological target: HLA-A*69:01; test: as above
[15] = biological target: HLA-B*15:01; test: as above
[16] = biological target: HLA-B*15:17; test: as above; settings: source organism: Listeria monocytogenes serotype 4b str. H7858
[17] = biological target: HLA-B*18:01; test: as above; settings: source organism: Listeria monocytogenes serotype 4b str. H7858
[18] = biological target: HLA-B*27:03; test: as above; settings: source organism: Listeria monocytogenes serotype 4b str. H7858
[19] = biological target: HLA-B*46:01; test: as above; settings: source organism: Listeria monocytogenes serotype 4b str. H7858
[20] = biological target: HLA-B*51:01; test: as above; settings: source organism: Listeria monocytogenes serotype 4b str. H7858
[21] = biological target: HLA-B*57:01; test: as above; settings: source organism: Listeria monocytogenes serotype 4b str. H7858
[22] = biological target: HLA-C*05:01; test: as above
[23] = biological target: HLA-A*24:03; test: IEDB peptide-MHC binding, purified MHC/competitive/fluorescence; filed as Kd, often an IC50 or EC50 that approximates it; ≥ and ≤ were set here for values at or beyond the usual limits of such assays; settings: source organism: Bacillus cereus G9241
[24] = biological target: HLA-C*15:02; test: IEDB peptide-MHC binding, purified MHC/direct/fluorescence; filed as Kd, often an IC50 or EC50 that approximates it; ≥ and ≤ were set here for values at or beyond the usual limits of such assays
[25] = biological target: HLA-A*01:01; test: as above
[26] = biological target: HLA-A*11:01; test: as above
[27] = biological target: HLA-A*31:01; test: as above
[28] = biological target: HLA-B*07:02; test: as above
[29] = biological target: HLA-B*08:01; test: as above
[30] = biological target: HLA-B*27:05; test: as above
[31] = biological target: HLA-B*35:01; test: as above; settings: source organism: Giardia lamblia ATCC 50803
[32] = biological target: HLA-B*40:01; test: as above
[33] = biological target: HLA-B*44:02; test: as above
[34] = biological target: HLA-B*58:01; test: as above
[35] = biological target: HLA-B*73:01; test: as above
[36] = biological target: HLA-A*30:01; test: as above; settings: source organism: Brucella melitensis
[37] = biological target: HLA-C*12:03; test: as above; settings: source organism: Giardia lamblia ATCC 50803
[38] = source organism: Listeria monocytogenes serotype 4b str. H7858
[39] = source organism: Burkholderia pseudomallei 1710b
[40] = source organism: Giardia lamblia ATCC 50803
[41] = source organism: Brucella abortus
[42] = source organism: Brucella melitensis

## ALGGGATGV
[1]; source organism: Mycobacterium tuberculosis
  IC50: 1.4 µM

## APAAAAQAV
[2]; source organism: Mycobacterium tuberculosis C
  Kd: 3.08 µM

## FRDEAGAIL
[3]; [38]
  Kd: ≥ 20 µM
[4]
  Kd: ≥ 20 µM
[5]
  Kd: ≥ 20 µM
[6]
  Kd: ≥ 20 µM
[7]
  Kd: ≥ 20 µM
[8]
  Kd: ≥ 20 µM
[9]; [38]
  Kd: ≥ 20 µM
[10]
  Kd: ≥ 20 µM
[11]; [38]
  Kd: ≥ 20 µM
[12]
  Kd: ≥ 20 µM
[13]
  Kd: ≥ 20 µM
[14]; [38]
  Kd: ≥ 20 µM
[15]; [38]
  Kd: ≥ 20 µM
[16]
  Kd: ≥ 20 µM
[17]
  Kd: ≥ 20 µM
[18]
  Kd: ≥ 20 µM
[19]
  Kd: ≥ 20 µM
[20]
  Kd: ≥ 20 µM
[21]
  Kd: ≥ 20 µM
[22]; source organism: Listeria monocytogenes FSL R2-503
  Kd: 2.21 µM

## KFIILLTSF
[2]; source organism: Bacillus cereus G9241
  Kd: 1.23 µM
[23]
  Kd: 0.159 µM

## KTADVTVVF
[22]; [39]
  Kd: 0.06 µM
[24]; [39]
  Kd: 0.253 µM

## LGIVCPI
[1]; source organism: Human papillomavirus 16
  IC50: 0.7 µM

## RHIAIQVCY
[25]; [40]
  Kd: ≥ 20 µM
[3]; [40]
  Kd: ≥ 20 µM
[9]; [40]
  Kd: ≥ 20 µM
[26]; [40]
  Kd: ≥ 20 µM
[11]; [40]
  Kd: ≥ 20 µM
[27]; [40]
  Kd: ≥ 20 µM
[14]; [40]
  Kd: ≥ 20 µM
[28]; [40]
  Kd: ≥ 20 µM
[29]; [40]
  Kd: ≥ 20 µM
[15]; [40]
  Kd: 1.73 µM
[30]; [40]
  Kd: 3.36 µM
[31]
  Kd: 1.19 µM
[32]; [40]
  Kd: ≥ 20 µM
[33]; [40]
  Kd: ≥ 20 µM
[34]; [40]
  Kd: ≥ 20 µM
[35]; [40]
  Kd: ≥ 20 µM

## SRIGAWASK
[25]; [41]
  Kd: ≥ 20 µM
[3]; [41]
  Kd: ≥ 20 µM
[9]; [42]
  Kd: 5.83 µM
[26]; [42]
  Kd: 1.22 µM
[11]; [41]
  Kd: ≥ 20 µM
[36]
  Kd: 1.27 µM
[27]; [41]
  Kd: ≥ 20 µM
[14]; [41]
  Kd: ≥ 20 µM
[28]; [41]
  Kd: ≥ 20 µM
[29]; [41]
  Kd: ≥ 20 µM
[15]; [41]
  Kd: ≥ 20 µM
[30]; [42]
  Kd: 0.0531 µM
[32]; [41]
  Kd: ≥ 20 µM
[33]; [41]
  Kd: ≥ 20 µM
[34]; [41]
  Kd: ≥ 20 µM
[35]; source organism: Brucella suis 1330
  Kd: ≥ 20 µM

## VLDVGDAYFSV
[1]; source organism: Human immunodeficiency virus 1
  IC50: 7 µM

## YLYLRPYAL
[29]; [40]
  Kd: 0.016 µM
[37]
  Kd: 0.029 µM
[2]; [40]
  Kd: 0.151 µM
[24]; [40]
  Kd: 3.05 µM
